Measured values taken from US10227575B2, “Multi-domain enzymes having cutinase activity, compositions comprising same and uses thereof” (OZYMES, priority 2015, dated 2019).

Columns and labels:
[1] = Polymer binding test, cellulose
Description: Different polymers (cellulose, PLA, PCL, and PHB) were tested to evaluate the ability of KrCUT and KrCUT189 to bind these materials. Binding assays for PCL and PLA could not be performed since both polymers were degraded by the enzymes.

[2] = Potential inhibitors of cutinase activity; assay type: biochemical
Description: Esterase activity was determined by monitoring the formation of pNP at 410 nm from various pNP-esters using a Beckman UV spectrophotometer (model DU 640) (21). Substrates were dissolved in isopropanol and were added to 50 mM sodium phosphate buffer pH 8.0 to give 10% (v/v) total isopropanol concentration in a 1 mL reaction volume. pNP-butyrate was used at a final concentration of 1.2 mM. For pNP-caprylate, myristate and palmitate, the final concentration ranged from 0.1 to 0.5 mM. The reaction (1 mL) was started by adding an appropriate amount of enzyme. One enzyme unit (U) is defined as the amount of enzyme that produced 1 μmol of product (pNP) per min; specific activity is expressed as U/mg protein. A molar extinction coefficient of 15 mM^−1 cm^−1 for pNP is used for calculating enzyme activity.
KrCUT cutinase activity was assayed as described in Example 1, section 1.6 in the presence of various chemicals using p-NP palmitate as substrate under standard assay conditions. […] Cu^2+ at 1.0 mM had little effect. The enzyme was not affected by the metal-chelating agent EDTA even at 10 mM. The anionic surfactant SDS was a strong inhibitor of cutinase even at 0.01% retaining only 28% activity. […] Dimethylsulfoxide (at 30%) and dimethylformide (at 5%) inhibited cutinase activity by about 70%.

[3] = Long term stability of KrCUT in culture medium; assay type: physicochemical; conditions: for Activity (U/mL): culture medium at 4° C.

B1: KrCUT: mature Kineococcus radiotolerans cutinase, amino acids 34-294 of SEQ ID NO: 1; SEQ ID NO: 6 (protein)
chain: ATCSDVDVVFARGTGETPGLGVVGGPFVRSLTGELSDRTVTSHAVDYAASSSQASAGPGATAMSAHVREVAAACPSTRFVLGGYSQGATVTDIALGIRTGTTTGTPVPAELAGRVAAVVVFGNPLGLSGRTIATASSTYGPKSKDYCNSSDSVCGSAPKTGTGGHLSYASNGSTTDGARFAAGLVRAAGTPTTPTPTPTPTPVPTTCVRDSTRDHVAADRAVSLYGRAYARGSRDSLGATSSYNVVSLQQVEGGWRLVTAC
modifications: Kineococcus radiotolerans; (1)..(261) KrCUT (lacking residues 1-33 of ssKrCUT)
For B1, the binding to cellulose [1] was “did not bind”, the effect of para-chloromercuribenzoate ([2]; 0.01 to 1 mM) was “no discernible effect” and the “effect of 2-propanol” value ([2]; 2-propanol exceeding 15%) was “strongly reduces enzyme activity”. For the same molecule, the “effect of Cu2+” value ([2]; Cu2+ 1.0 mM) was “little effect”, the “effect of EDTA” value ([2]; EDTA 10 mM) was “not affected” and the “enzyme inhibition by Fe2+” value ([2]; Fe2+ 1 mM) was 50%. For the same molecule, the “enzyme inhibition by Mg2+” value ([2]; Mg2+ 10 mM) was 19%, the “activity retained with SDS” value ([2]; SDS 0.01%) was 28% and the “effect of SDS” value ([2]; SDS 0.1%) was “complete loss of activity”. The effect of alcohols ([2]; concentration above 15-20%) was “strong inhibiting effect”, the inhibition by dimethylformide ([2]; dimethylformide 5%) was “about 70%” and the inhibition by dimethylsulfoxide ([2]; dimethylsulfoxide 30%) was “about 70%”. The “loss of activity by zinc ion” value ([2]; zinc ion 0.1 mM) was “over 90%”, the “effect of zinc ion on cutinase activity” value ([2]; zinc ion 1 mM) was “complete loss of activity” and the “Activity (U/mL)” value ([3]; 0 months) was 3.0 ± 0.94 U/mL. For the same molecule, the “Activity (U/mL)” value ([3]; 3 months) was 25.67 ± 0.94 U/mL, the “Activity (U/mL)” value ([3]; 4 months) was 17.13 ± 0.70 U/mL and the “Activity (U/mL)” value ([3]; 17 months) was 16.66 ± 2.47 U/mL. For the same molecule, the “Activity (U/mL)” value ([3]; 19 months) was 21.94 U/mL and the activity retained ([3]; room temperature, culture medium without additives, 4 months) was “full activity”.
